Common to all, as to assay: cell-based or functional assay
For one assay, the target named is hGLP-1R (Homo sapiens, UniProt P43220).
In assay [1] the target is T1, human GIP receptor (human) (UniProt P48546).
T1 sequence (looked up): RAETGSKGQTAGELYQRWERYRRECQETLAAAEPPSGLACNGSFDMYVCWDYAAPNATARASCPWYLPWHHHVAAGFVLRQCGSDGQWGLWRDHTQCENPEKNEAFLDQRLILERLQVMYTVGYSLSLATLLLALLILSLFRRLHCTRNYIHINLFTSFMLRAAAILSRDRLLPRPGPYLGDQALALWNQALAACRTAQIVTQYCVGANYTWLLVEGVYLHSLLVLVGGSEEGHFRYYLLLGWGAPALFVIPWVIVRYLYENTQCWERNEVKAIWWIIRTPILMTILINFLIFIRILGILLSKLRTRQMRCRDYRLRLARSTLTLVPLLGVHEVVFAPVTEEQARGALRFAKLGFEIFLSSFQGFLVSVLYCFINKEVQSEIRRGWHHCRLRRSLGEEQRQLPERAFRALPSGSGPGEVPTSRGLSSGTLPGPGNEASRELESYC

Assay [2] addresses human glucagon receptor (human) (UniProt P47871).

hGLP-1R, sequence (P43220 24-463): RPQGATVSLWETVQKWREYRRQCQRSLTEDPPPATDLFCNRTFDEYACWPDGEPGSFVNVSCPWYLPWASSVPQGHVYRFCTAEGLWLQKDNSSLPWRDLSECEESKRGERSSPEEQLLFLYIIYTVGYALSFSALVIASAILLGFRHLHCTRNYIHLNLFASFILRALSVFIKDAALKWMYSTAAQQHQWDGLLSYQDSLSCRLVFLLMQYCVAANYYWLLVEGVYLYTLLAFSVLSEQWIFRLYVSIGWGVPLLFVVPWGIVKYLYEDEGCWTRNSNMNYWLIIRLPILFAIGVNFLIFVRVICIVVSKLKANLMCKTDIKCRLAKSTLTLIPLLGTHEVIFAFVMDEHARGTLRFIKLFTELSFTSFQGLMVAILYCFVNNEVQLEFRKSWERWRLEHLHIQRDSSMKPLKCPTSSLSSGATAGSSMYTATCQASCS
human glucagon receptor (human), sequence (P47871 26-477): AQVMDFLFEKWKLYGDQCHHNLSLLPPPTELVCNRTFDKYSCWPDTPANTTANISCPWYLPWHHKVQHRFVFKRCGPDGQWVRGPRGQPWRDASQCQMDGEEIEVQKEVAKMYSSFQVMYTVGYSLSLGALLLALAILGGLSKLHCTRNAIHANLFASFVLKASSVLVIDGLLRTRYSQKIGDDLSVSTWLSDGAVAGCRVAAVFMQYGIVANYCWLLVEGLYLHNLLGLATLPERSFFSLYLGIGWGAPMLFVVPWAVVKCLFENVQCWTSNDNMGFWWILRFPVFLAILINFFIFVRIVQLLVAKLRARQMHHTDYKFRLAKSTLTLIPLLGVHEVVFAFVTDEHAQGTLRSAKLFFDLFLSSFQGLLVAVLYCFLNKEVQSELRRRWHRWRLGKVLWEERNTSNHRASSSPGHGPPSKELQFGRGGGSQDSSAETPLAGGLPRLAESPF

B1: Example 788 (peptide)
chain: YXQGTFTSDFSQXLDKKAQXAFIEYLLEXGESSGEPPPSGS
modifications: synthetic construct; SITE 2: note = 2-Aminoisobutyric Acid; SITE 13: note = alpha-methyl-leucine; SITE 17: note = Lysine is chemically modified through conjugation of the epsilon-amino group of the Lysine side chain with (2-[2-(2-Amino-ethoxy)-ethoxy]-acetyl)-(gamma-Glu)-CO-(CH2) 16-CO2H; SITE 20: n
B1: the figures for the Relative cAMP EC50 (with hGLP-1R; in assay [1]; in assay [2]) were 2.5 nM, 0.0923 nM and 3.36 nM, respectively. Moreover, the results for the cAMP Rel EC50, nM (1% HSA) (with hGLP-1R; in assay [1]; in assay [2]) were 528 nM, 20.7 nM and 1420 nM, respectively.

B2: Example 789 (peptide)
chain: YXQGTFTSDFSQXLDKKAQXAFIEYLLEXGESSGAPPPSGE
modifications: synthetic construct; SITE 2: note = 2-Aminoisobutyric Acid; SITE 13: note = alpha-methyl-leucine; SITE 17: note = Lysine is chemically modified through conjugation of the epsilon-amino group of the Lysine side chain with (2-[2-(2-Amino-ethoxy)-ethoxy]-acetyl)-(gamma-Glu)-CO-(CH2) 16-CO2H; SITE 20: n
Regarding B2, the Relative cAMP EC50 with hGLP-1R turned out to be 2.74 nM; in assay [1], 0.101 nM; in assay [2], 3.3 nM. Moreover, the cAMP Rel EC50, nM (1% HSA) with hGLP-1R was determined as 379 nM; in assay [1] it was 20.4 nM; in assay [2] it was 1200 nM.

B3: Example 790 (peptide)
chain: YXQGTFTSDFSQXLDKKAQXAFIEYLLEXGESSGEPPPSGE
modifications: synthetic construct; SITE 2: note = 2-Aminoisobutyric Acid; SITE 13: note = alpha-methyl-leucine; SITE 17: note = Lysine is chemically modified through conjugation of the epsilon-amino group of the Lysine side chain with (2-[2-(2-Amino-ethoxy)-ethoxy]-acetyl)-(gamma-Glu)-CO-(CH2) 16-CO2H; SITE 20: n
B3: the Relative cAMP EC50 amounted to 3.19 nM with hGLP-1R, 0.131 nM in assay [1] and 3.87 nM in assay [2]. For the same molecule, the cAMP Rel EC50, nM (1% HSA) with hGLP-1R was 858 nM; in assay [1], 34.1 nM; in assay [2], 1200 nM.

B4: Example 767 (peptide)
chain: YXQGTXTSDXXIXLDXKYQXEFIEXLVEGGPSSGAPPPSGS
modifications: synthetic construct; SITE 2: note = 2-Aminoisobutyric Acid; SITE 6: note = alpha-methyl-2-fluoro-L-phenylalanine; SITE 10: note = 3-(4-Pyridyl)-L-alanine; SITE 11: note = alpha-methyl-L-serine; SITE 13: note = alpha-methyl-leucine; SITE 16: note = L-ornithine; SITE 17: note = Lysine is chemically mo
With B4, the figures for the Relative cAMP EC50 (with hGLP-1R; in assay [1]; in assay [2]) were 0.299 nM, 0.00792 nM and 1.13 nM, respectively. In addition, the cAMP Rel EC50, nM (1% HSA) with hGLP-1R is 56.8 nM; in assay [1] it was 1.51 nM; in assay [2] it was 207 nM.

B5: Example 768 (peptide)
chain: YXQGTXTSDXXIXLEXKAQXEFIEXLVEGGPSSGAPPPSGS
modifications: synthetic construct; SITE 2: note = 2-Aminoisobutyric Acid; SITE 6: note = alpha-methyl-2-fluoro-L-phenylalanine; SITE 10: note = 3-(4-Pyridyl)-L-alanine; SITE 11: note = alpha-methyl-L-serine; SITE 13: note = alpha-methyl-leucine; SITE 16: note = L-ornithine; SITE 17: note = Lysine is chemically mo
In the case of B5, the figures for the Relative cAMP EC50 (in the assay with hGLP-1R; in assay [1]; in assay [2]) were 0.259 nM, 0.0294 nM and 10.3 nM, respectively. Further, the cAMP Rel EC50, nM (1% HSA) with hGLP-1R amounted to 33.2 nM; in assay [1] it was 2.65 nM; in assay [2] it was 2270 nM.

B6: Example 770 (peptide)
chain: YXQGTFTSDFSXXLDKKAQXAFIEYLLEGGPSSXAPPPGGS
modifications: not fully specified; synthetic construct; SITE 2: note = 2-Aminoisobutyric Acid; SITE 12: note = L-ornithine; SITE 13: note = alpha-methyl-leucine; SITE 17: note = Lysine is chemically modified through conjugation of the epsilon-amino group of the Lysine side chain with (gamma-Glu)2-CO-(CH2)16-CO2H; SITE 20: note = 2-Am
Turning to B6, the Relative cAMP EC50 in the assay with hGLP-1R came out at 3.91 nM; in assay [1], 0.244 nM; in assay [2], 5.37 nM. The figures for the cAMP Rel EC50, nM (1% HSA) (with hGLP-1R; in assay [1]; in assay [2]) were 240 nM, 18.2 nM and 390 nM, respectively.

B7: Example 773 (peptide)
chain: YXQGTFTSDFSQXLDKKAQXAFIEYLLAGGPSSGEPPPSGS
modifications: synthetic construct; SITE 2: note = 2-Aminoisobutyric Acid; SITE 13: note = alpha-methyl-leucine; SITE 17: note = Lysine is chemically modified through conjugation of the epsilon-amino group of the Lysine side chain with (2-[2-(2-Amino-ethoxy)-ethoxy]-acetyl)-(gamma-Glu)-CO-(CH2) 16-CO2H; SITE 20: n
Regarding B7, the Relative cAMP EC50 with hGLP-1R worked out at 1.97 nM; in assay [1], 0.0974 nM; in assay [2], 15.3 nM. The cAMP Rel EC50, nM (1% HSA) in the assay with hGLP-1R was found to be 241 nM; in assay [1], 26.3 nM; in assay [2] it was 2260 nM.

B8: Example 774 (peptide)
chain: YXQGTFTSDFSQXLDKKAQXAFIEWLLEGGPSSGAPPPEGS
modifications: synthetic construct; SITE 2: note = 2-Aminoisobutyric Acid; SITE 13: note = alpha-methyl-leucine; SITE 17: note = Lysine is chemically modified through conjugation of the epsilon-amino group of the Lysine side chain with (2-[2-(2-Amino-ethoxy)-ethoxy]-acetyl)-(gamma-Glu)-CO-(CH2) 16-CO2H; SITE 20: n
Turning to B8, the Relative cAMP EC50 with hGLP-1R is 1.89 nM; in assay [1], 0.128 nM; in assay [2], 13.7 nM. Further, the cAMP Rel EC50, nM (1% HSA) with hGLP-1R was 404 nM; in assay [1] it was 32.8 nM; in assay [2], 2330 nM.

B9: Example 777 (peptide)
chain: YXQGTFTSDFSQXLDKKAQXAFIEYLLEAGPSSGAPPPSGX
modifications: synthetic construct; SITE 2: note = 2-Aminoisobutyric Acid; SITE 13: note = alpha-methyl-leucine; SITE 17: note = Lysine is chemically modified through conjugation of the epsilon-amino group of the Lysine side chain with (2-[2-(2-Amino-ethoxy)-ethoxy]-acetyl)-(gamma-Glu)-CO-(CH2) 16-CO2H; SITE 20: n
In the case of B9, the Relative cAMP EC50 with hGLP-1R worked out at 0.913 nM; in assay [1] it was 0.113 nM; in assay [2], 3.89 nM. For the same molecule, the cAMP Rel EC50, nM (1% HSA) in the assay with hGLP-1R was determined as 231 nM; in assay [1], 22.2 nM; in assay [2], 1320 nM.

B10: Example 795 (peptide)
chain: YXQGTFTSDFSQXLDKKAQXAFIEYLIEGGESSGAPPPSGS
modifications: synthetic construct; SITE 2: note = 2-Aminoisobutyric Acid; SITE 13: note = alpha-methyl-leucine; SITE 17: note = Lysine is chemically modified through conjugation of the epsilon-amino group of the Lysine side chain with (2-[2-(2-Amino-ethoxy)-ethoxy]-acetyl)-(gamma-Glu)-CO-(CH2) 16-CO2H; SITE 20: n
For the molecule B10, the Relative cAMP EC50 in the assay with hGLP-1R was found to be 0.972 nM; in assay [1], 0.345 nM; in assay [2], 1.77 nM. Further, the cAMP Rel EC50, nM (1% HSA) with hGLP-1R was 221 nM; in assay [1], 67.3 nM; in assay [2], 566 nM.

B11: Example 779 (peptide)
chain: YXQGTFTSDFSQXLDKKAQXAFIEYLLEAGPSSXAPPPSGT
modifications: synthetic construct; SITE 2: note = 2-Aminoisobutyric Acid; SITE 13: note = alpha-methyl-leucine; SITE 17: note = Lysine is chemically modified through conjugation of the epsilon-amino group of the Lysine side chain with (2-[2-(2-Amino-ethoxy)-ethoxy]-acetyl)-(gamma-Glu)-CO-(CH2) 16-CO2H; SITE 20: n
On to B11, for which the Relative cAMP EC50 came to 0.949 nM with hGLP-1R, 0.112 nM in assay [1] and 4.58 nM in assay [2]. The figures for the cAMP Rel EC50, nM (1% HSA) (in the assay with hGLP-1R; in assay [1]; in assay [2]) were 175 nM, 19.3 nM and 1020 nM, respectively.

These data come from patent US20240270821A1, “GIP/GLP1/GCG TRI-RECEPTOR AGONISTS AND USES THEREOF” (priority 2023, published 2024).
